This note sets out measurements from the supplement of paper PMC5998384.

Series [1] relates to HeLa Kyoto. Nature of the series: solubility in G1/S (NP-40 vs SDS abundance) (log2 ratio); higher = more soluble. Particulars: cell cycle stage: G1/S.
In series [2] the test system is HeLa Kyoto. The series is described as follows: thermal stability score vs G1/S (z-score of summed log2 fold changes over temperatures); higher = more thermally stable than in G1/S.
For series [3], the system named is HeLa Kyoto. The series is described as follows: solubility change mitosis vs G1/S (difference of NP-40 vs SDS log2 ratios) (log2 ratio difference); higher = more soluble in mitosis.
The test system of series [4] is HeLa Kyoto. The series is described as follows: melting temperature (median over replicates), in situ; higher = more thermally stable.
The mark [5] stands for this setting: cell cycle stage: early G1 (4.5 h after nocodazole release).
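Throughout, for melting temperature (median over replicates), in situ: HeLa Kyoto cells synchronized by double thymidine or nocodazole block, proteins quantified by TMT10plex mass spectrometry, three independent biological replicates.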
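Throughout, for solubility change mitosis vs G1/S (difference of NP-40 vs SDS log2 ratios): synchronized HeLa Kyoto cells (double thymidine block for G1/S, nocodazole release for mitosis), protein amounts in NP-40 versus SDS lysates quantified by mass spectrometry, three biological replicates.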
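Throughout, for solubility in G1/S (NP-40 vs SDS abundance): HeLa Kyoto cells arrested at G1/S by double thymidine block, proteins quantified by TMT10plex mass spectrometry in mild NP-40 versus SDS extracts, three biological replicates.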
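Throughout, for thermal stability score vs G1/S (z-score of summed log2 fold changes over temperatures): synchronized HeLa Kyoto cells, proteins quantified by TMT10plex mass spectrometry, three biological replicates, mitosis taken 0.5 h after nocodazole release, G1/S directly after double thymidine block.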

On to “MSVPSALMKQPPIQSTAGAVPVRNEKGEISMEKVKVKRYVSGKRPDYAPMESSDEEDEEFQFIKKAKEQEAEPEEQEEDSSSDPRLRRLQNRISEDVEERLARHRKIVEPEVVGESDSEVEGDAWRMEREDSSEEEEEEIDDEEIERRRGMMRQRAQERKNEEMEVMEVEDEGRSGEESESESEYEEYTDSEDEMEPRLKPVFIRKKDRVTVQEREAEALKQKELEQEAKRMAEERRKYTLKIVEEETKKELEENKRSLAALDALNTDDENDEEEYEAWKVRELKRIKRDREDREALEKEKAEIERMRNLTEEERRAELRANGKVITNKAVKGKYKFLQKYYHRGAFFMDEDEEVYKRDFSAPTLEDHFNKTILPKVMQVKNFGRSGRTKYTHLVDQDTTSFDSAWGQESAQNTKFFKQKAAGVRDVFERPSAKKRKTT [MFAP1]”, for which, in the series on HeLa Kyoto [1], the “solubility in G1/S (log2)” value is -0.901. Besides, the values for the thermal stability score in the series on HeLa Kyoto [2] (setting [5]) and in the series with HeLa Kyoto [2] (cell cycle stage: mitosis) were -4 and -4.38, respectively. Besides, in the series with HeLa Kyoto [3], the “solubility change mitosis (log2)” value was determined as 0.782. Moreover, the figures for the melting temperature with HeLa Kyoto [4] (cell cycle stage: G1/S) and with HeLa Kyoto [4] (cell cycle stage: mitosis) were 57.2 °C and 54.3 °C, respectively.
For the sequence “MSVQVVSAAAAAKVPEVELKDLSPSEAESQLGLSTAAVGAMAPPAGGGDPEAPAPAAERPPVPGPGSGPAAALSPAAGKVPQASAMKRSDPHHQHQRHRDGGEALVSPDGTVTEAPRTVKKQIQFADQKQEFNKRPTKIGRRSLSRSISQSSTDSYSSAASYTDSSDDETSPRDKQQKNSKGSSDFCVKNIKQAEFGRREIEIAEQEMPALMALRKRAQGEKPLAGAKIVGCTHITAQTAVLMETLGALGAQCRWAACNIYSTLNEVAAALAESGFPVFAWKGESEDDFWWCIDRCVNVEGWQPNMILDDGGDLTHWIYKKYPNMFKKIKGIVEESVTGVHRLYQLSKAGKLCVPAMNVNDSVTKQKFDNLYCCRESILDGLKRTTDMMFGGKQVVVCGYGEVGKGCCAALKAMGSIVYVTEIDPICALQACMDGFRLVKLNEVIRQVDIVITCTGNKNVVTREHLDRMKNSCIVCNMGHSNTEIDVASLRTPELTWERVRSQVDHVIWPDGKRIVLLAEGRLLNLSCSTVPTFVLSITATTQALALIELYNAPEGRYKQDVYLLPKKMDEYVASLHLPTFDAHLTELTDEQAKYLGLNKNGPFKPNYYRY [AHCYL2]”, the “solubility in G1/S (log2)” value in the series with HeLa Kyoto [1] is -0.105. Also, the values for the thermal stability score in the series on HeLa Kyoto [2] (setting [5]) and with HeLa Kyoto [2] (cell cycle stage: mitosis) were -1.59 and -3.95, respectively. Also, the “solubility change mitosis (log2)” value in the series with HeLa Kyoto [3] was -0.0168. The melting temperature in the series on HeLa Kyoto [4] (cell cycle stage: G1/S) came out at 60.1 °C; in the series with HeLa Kyoto [4] (cell cycle stage: mitosis), 57.5 °C.
In the case of “MSVVGIDLGFLNCYIAVARSGGIETIANEYSDRCTPACISLGSRTRAIGNAAKSQIVTNVRNTIHGFKKLHGRSFDDPIVQTERIRLPYELQKMPNGSAGVKVRYLEEERPFAIEQVTGMLLAKLKETSENALKKPVADCVISIPSFFTDAERRSVMAAAQVAGLNCLRLMNETTAVALAYGIYKQDLPPLDEKPRNVVFIDMGHSAYQVLVCAFNKGKLKVLATTFDPYLGGRNFDEALVDYFCDEFKTKYKINVKENSRALLRLYQECEKLKKLMSANASDLPLNIECFMNDLDVSSKMNRAQFEQLCASLLARVEPPLKAVMEQANLQREDISSIEIVGGATRIPAVKEQITKFFLKDISTTLNADEAVARGCALQCAILSPAFKVREFSITDLVPYSITLRWKTSFEDGSGECEVFCKNHPAPFSKVITFHKKEPFELEAFYTNLHEVPYPDARIGSFTIQNVFPQSDGDSSKVKVKVRVNIHGIFSVASASVIEKQNLEGDHSDAPMETETSFKNENKDNMDKMQVDQEEGHQKCHAEHTPEEEIDHTGAKTKSAVSDKQDRLNQTLKKGKVKSIDLPIQSSLCRQLGQDLLNSYIENEGKMIMQDKLEKERNDAKNAVEEYVYDFRDRLGTVYEKFITPEDLSKLSAVLEDTENWLYEDGEDQPKQVYVDKLQELKKYGQPIQMKYMEHEERPKALNDLGKKIQLVMKVIEAYRNKDERYDHLDPTEMEKVEKCISDAMSWLNSKMNAQNKLSLTQDPVVKVSEIVAKSKELDNFCNPIIYKPKPKAEVPEDKPKANSEHNGPMDGQSGTETKSDSTKDSSQHTKSSGEMEVD [HSPA4L]”, in the series with HeLa Kyoto [1], the “solubility in G1/S (log2)” value was determined as 0.145. Further, the values for the thermal stability score in the series on HeLa Kyoto [2] (setting [5]) and in the series with HeLa Kyoto [2] (cell cycle stage: mitosis) were 1.4 and 1.87, respectively. Moreover, the “solubility change mitosis (log2)” value with HeLa Kyoto [3] was -0.0487. For the same sequence, the melting temperature came out at 49.8 °C in the series on HeLa Kyoto [4] (cell cycle stage: G1/S) and 49.9 °C in the series with HeLa Kyoto [4] (cell cycle stage: mitosis).
As for “MSVVGIDLGFQSCYVAVARAGGIETIANEYSDRCTPACISFGPKNRSIGAAAKSQVISNAKNTVQGFKRFHGRAFSDPFVEAEKSNLAYDIVQLPTGLTGIKVTYMEEERNFTTEQVTAMLLSKLKETAESVLKKPVVDCVVSVPCFYTDAERRSVMDATQIAGLNCLRLMNETTAVALAYGIYKQDLPALEEKPRNVVFVDMGHSAYQVSVCAFNRGKLKVLATAFDTTLGGRKFDEVLVNHFCEEFGKKYKLDIKSKIRALLRLSQECEKLKKLMSANASDLPLSIECFMNDVDVSGTMNRGKFLEMCNDLLARVEPPLRSVLEQTKLKKEDIYAVEIVGGATRIPAVKEKISKFFGKELSTTLNADEAVTRGCALQCAILSPAFKVREFSITDVVPYPISLRWNSPAEEGSSDCEVFSKNHAAPFSKVLTFYRKEPFTLEAYYSSPQDLPYPDPAIAQFSVQKVTPQSDGSSSKVKVKVRVNVHGIFSVSSASLVEVHKSEENEEPMETDQNAKEEEKMQVDQEEPHVEEQQQQTPAENKAESEEMETSQAGSKDKKMDQPPQAKKAKVKTSTVDLPIENQLLWQIDREMLNLYIENEGKMIMQDKLEKERNDAKNAVEEYVYEMRDKLSGEYEKFVSEDDRNSFTLKLEDTENWLYEDGEDQPKQVYVDKLAELKNLGQPIKIRFQESEERPKLFEELGKQIQQYMKIISSFKNKEDQYDHLDAADMTKVEKSTNEAMEWMNNKLNLQNKQSLTMDPVVKSKEIEAKIKELTSTCSPIISKPKPKVEPPKEEQKNAEQNGPVDGQGDNPGPQAAEQGTDTAVPSDSDKKLPEMDID [HSPA4]”, the “solubility in G1/S (log2)” value in the series with HeLa Kyoto [1] came to 0.198. Besides, the thermal stability score in the series with HeLa Kyoto [2] (setting [5]) was 0.436; with HeLa Kyoto [2] (cell cycle stage: mitosis), 1.85. For the same sequence, the “solubility change mitosis (log2)” value in the series on HeLa Kyoto [3] was -0.0794. Also, the melting temperature with HeLa Kyoto [4] (cell cycle stage: G1/S) came out at 51.3 °C; in the series with HeLa Kyoto [4] (cell cycle stage: mitosis), 51.1 °C.
“MSWAARPPFLPQRHAAGQCGPVGVRKEMHCGVASRWRRRRPWLDPAAAAAAAVAGGEQQTPEPEPGEAGRDGMGDSGRDSRSPDSSSPNPLPQGVPPPSPPGPPLPPSTAPSLGGSGAPPPPPMPPPPLGSPFPVISSSMGSPGLPPPAPPGFSGPVSSPQINSTVSLPGGGSGPPEDVKPPVLGVRGLHCPPPPGGPGAGKRLCAICGDRSSGKHYGVYSCEGCKGFFKRTIRKDLTYSCRDNKDCTVDKRQRNRCQYCRYQKCLATGMKREAVQEERQRGKDKDGDGEGAGGAPEEMPVDRILEAELAVEQKSDQGVEGPGGTGGSGSSPNDPVTNICQAADKQLFTLVEWAKRIPHFSSLPLDDQVILLRAGWNELLIASFSHRSIDVRDGILLATGLHVHRNSAHSAGVGAIFDRVLTELVSKMRDMRMDKTELGCLRAIILFNPDAKGLSNPSEVEVLREKVYASLETYCKQKYPEQQGRFAKLLLRLPALRSIGLKCLEHLFFFKLIGDTPIDTFLMEMLEAPHQLA [RXRB]”: in the series on HeLa Kyoto [1], the “solubility in G1/S (log2)” value came out at 0.264. The figures for the thermal stability score in the series on HeLa Kyoto [2] (setting [5]) and in the series on HeLa Kyoto [2] (cell cycle stage: mitosis) were 0.348 and 0.163, respectively. The “solubility change mitosis (log2)” value in the series with HeLa Kyoto [3] is -0.14. The melting temperature in the series with HeLa Kyoto [4] (cell cycle stage: G1/S) came to 47.6 °C; with HeLa Kyoto [4] (cell cycle stage: mitosis), 49.1 °C.
With “MSWGTELWDQFDNLEKHTQWGIDILEKYIKFVKERTEIELSYAKQLRNLSKKYQPKKNSKEEEEYKYTSCKAFISNLNEMNDYAGQHEVISENMASQIIVDLARYVQELKQERKSNFHDGRKAQQHIETCWKQLESSKRRFERDCKEADRAQQYFEKMDADINVTKADVEKARQQAQIRHQMAEDSKADYSSILQKFNHEQHEYYHTHIPNIFQKIQEMEERRIVRMGESMKTYAEVDRQVIPIIGKCLDGIVKAAESIDQKNDSQLVIEAYKSGFEPPGDIEFEDYTQPMKRTVSDNSLSNSRGEGKPDLKFGGKSKGKLWPFIKKNKLMSLLTSPHQPPPPPPASASPSAVPNGPQSPKQQKEPLSHRFNEFMTSKPKIHCFRSLKRGLSLKLGATPEDFSNLPPEQRRKKLQQKVDELNKEIQKEMDQRDAITKMKDVYLKNPQMGDPASLDHKLAEVSQNIEKLRVETQKFEAWLAEVEGRLPARSEQARRQSGLYDSQNPPTVNNCAQDRESPDGSYTEEQSQESEMKVLATDFDDEFDDEEPLPAIGTCKALYTFEGQNEGTISVVEGETLYVIEEDKGDGWTRIRRNEDEEGYVPTSYVEVCLDKNAKDS [FNBP1]”, the “solubility in G1/S (log2)” value in the series with HeLa Kyoto [1] came out at 0.298. Moreover, the thermal stability score in the series with HeLa Kyoto [2] (setting [5]) amounted to 0.62; in the series with HeLa Kyoto [2] (cell cycle stage: mitosis) it was 0.929. Further, the “solubility change mitosis (log2)” value in the series with HeLa Kyoto [3] was -0.129. Besides, the melting temperature in the series with HeLa Kyoto [4] (cell cycle stage: G1/S) was found to be 49.7 °C; with HeLa Kyoto [4] (cell cycle stage: mitosis), 49.4 °C.
With “MSWGTELWDQFDSLDKHTQWGIDFLERYAKFVKERIEIEQNYAKQLRNLVKKYCPKRSSKDEEPRFTSCVAFFNILNELNDYAGQREVVAEEMAHRVYGELMRYAHDLKTERKMHLQEGRKAQQYLDMCWKQMDNSKKKFERECREAEKAQQSYERLDNDTNATKADVEKAKQQLNLRTHMADENKNEYAAQLQNFNGEQHKHFYVVIPQIYKQLQEMDERRTIKLSECYRGFADSERKVIPIISKCLEGMILAAKSVDERRDSQMVVDSFKSGFEPPGDFPFEDYSQHIYRTISDGTISASKQESGKMDAKTTVGKAKGKLWLFGKKPKPQSPPLTPTSLFTSSTPNGSQFLTFSIEPVHYCMNEIKTGKPRIPSFRSLKRGWSVKMGPALEDFSHLPPEQRRKKLQQRIDELNRELQKESDQKDALNKMKDVYEKNPQMGDPGSLQPKLAETMNNIDRLRMEIHKNEAWLSEVEGKTGGRGDRRHSSDINHLVTQGRESPEGSYTDDANQEVRGPPQQHGHHNEFDDEFEDDDPLPAIGHCKAIYPFDGHNEGTLAMKEGEVLYIIEEDKGDGWTRARRQNGEEGYVPTSYIDVTLEKNSKGS [FNBP1L]”, the “solubility in G1/S (log2)” value with HeLa Kyoto [1] was found to be 0.339. Also, the thermal stability score in the series with HeLa Kyoto [2] (setting [5]) is -0.0981; in the series with HeLa Kyoto [2] (cell cycle stage: mitosis), -0.548. For the same sequence, the “solubility change mitosis (log2)” value with HeLa Kyoto [3] was -0.034. Further, the melting temperature in the series with HeLa Kyoto [4] (cell cycle stage: G1/S) and in the series with HeLa Kyoto [4] (cell cycle stage: mitosis) was 51.1 °C in each case.
